Test results taken from patent US20250236663A1.
Blank lines part the entries; values can stand above or below the binder they belong to.

How the values were obtained:
[1] = target: Recombinant human FAM19A5 protein (His-tagged) (human) (UniProt Q7Z5A7); test: ELISA, N'-Term His; set-up: unit not given here
[2] = target: Recombinant human FAM19A5 protein (His-tagged) (human) (UniProt Q7Z5A7); test: OCTET (BLI), His-tagged FAM19A5 on Ni-NTA biosensors, antibody at 1.1-300 nM
[3] = target: Recombinant human FAM19A5 protein (His-tagged) (human) (UniProt Q7Z5A7); test: ELISA, N'-Term His; R² 0.9329
[4] = target: Recombinant human FAM19A5 protein (His-tagged) (human) (UniProt Q7Z5A7); test: ELISA, N'-Term His; R² 0.9692
[5] = target: Recombinant human FAM19A5 protein (His-tagged) (human) (UniProt Q7Z5A7); test: two-site sandwich ELISA, capture antibody P2-A03; O.D. 0.09 / 0.09 / 0.09 at antigen 100 / 10 / 0 (ng/mL); grey box
[6] = target: Recombinant human FAM19A5 protein (His-tagged) (human) (UniProt Q7Z5A7); test: two-site sandwich ELISA, capture antibody 13B4; O.D. 0.2 / 0.18 / 0.18 at antigen 100 / 10 / 0 (ng/mL); grey box
[7] = target: Recombinant human FAM19A5 protein (His-tagged) (human) (UniProt Q7Z5A7); test: two-site sandwich ELISA, capture antibody 3-2; O.D. 2.02 / 1.81 / 0.13 at antigen 100 / 10 / 0 (ng/mL); white box
[8] = target: Recombinant human FAM19A5 protein (His-tagged) (human) (UniProt Q7Z5A7); test: two-site sandwich ELISA, capture antibody 2-13; O.D. 1.83 / 2.04 / 0.29 at antigen 100 / 10 / 0 (ng/mL); white box
[9] = target: Recombinant human FAM19A5 protein (His-tagged) (human) (UniProt Q7Z5A7); test: two-site sandwich ELISA, capture antibody 1-65; O.D. 1.25 / 0.2 / 0.12 at antigen 100 / 10 / 0 (ng/mL); grey box but for the cell of 100
[10] = target: Recombinant human FAM19A5 protein (His-tagged) (human) (UniProt Q7Z5A7); test: ELISA, N'-Term His; R² -0.2016
[11] = target: Recombinant human FAM19A5 protein (His-tagged) (human) (UniProt Q7Z5A7); test: two-site sandwich ELISA, capture antibody P2-F11; O.D. 0.15 / 0.15 / 0.14 at antigen 100 / 10 / 0 (ng/mL); grey box
[12] = target: Recombinant human FAM19A5 protein (His-tagged) (human) (UniProt Q7Z5A7); test: two-site sandwich ELISA, capture antibody 2-13; O.D. 1.88 / 1.72 / 0.22 at antigen 100 / 10 / 0 (ng/mL); white box
[13] = target: Recombinant human FAM19A5 protein (His-tagged) (human) (UniProt Q7Z5A7); test: two-site sandwich ELISA, capture antibody 13B4; O.D. 0.27 / 0.22 / 0.22 at antigen 100 / 10 / 0 (ng/mL); grey box
[14] = target: Recombinant human FAM19A5 protein (His-tagged) (human) (UniProt Q7Z5A7); test: two-site sandwich ELISA, capture antibody 1-65; O.D. 0.16 / 0.15 / 0.15 at antigen 100 / 10 / 0 (ng/mL); grey box
[15] = target: Recombinant human FAM19A5 protein (His-tagged) (human) (UniProt Q7Z5A7); test: ELISA, N'-Term His; R² 0.9746
[16] = target: Recombinant human FAM19A5 protein (His-tagged) (human) (UniProt Q7Z5A7); test: two-site sandwich ELISA, capture antibody 3-2; O.D. 1.91 / 1.66 / 0.16 at antigen 100 / 10 / 0 (ng/mL); white box
[17] = target: Recombinant human FAM19A5 protein (His-tagged) (human) (UniProt Q7Z5A7); test: ELISA, N'-Term His; R² 0.9105
[18] = target: Recombinant human FAM19A5 protein (His-tagged) (human) (UniProt Q7Z5A7); test: ELISA, N'-Term His; R² 0.9813
[19] = target: Recombinant human FAM19A5 protein (His-tagged) (human) (UniProt Q7Z5A7); test: two-site sandwich ELISA, capture antibody P2-F11; O.D. 0.14 / 0.16 / 0.15 at antigen 100 / 10 / 0 (ng/mL); grey box
[20] = target: Recombinant human FAM19A5 protein (His-tagged) (human) (UniProt Q7Z5A7); test: two-site sandwich ELISA, capture antibody P2-A03; O.D. 0.15 / 0.16 / 0.14 at antigen 100 / 10 / 0 (ng/mL); grey box
[21] = target: Recombinant human FAM19A5 protein (His-tagged) (human) (UniProt Q7Z5A7); test: two-site sandwich ELISA, capture antibody 3-2; O.D. 1.7 / 0.3 / 0.13 at antigen 100 / 10 / 0 (ng/mL); white box
[22] = target: Recombinant human FAM19A5 protein (His-tagged) (human) (UniProt Q7Z5A7); test: ELISA, N'-Term His; R² 0.8823
[23] = target: Recombinant human FAM19A5 protein (His-tagged) (human) (UniProt Q7Z5A7); test: two-site sandwich ELISA, capture antibody 1-65; O.D. 0.12 / 0.12 / 0.12 at antigen 100 / 10 / 0 (ng/mL); grey box
[24] = target: Recombinant human FAM19A5 protein (His-tagged) (human) (UniProt Q7Z5A7); test: two-site sandwich ELISA, capture antibody 2-13; O.D. 1.92 / 0.65 / 0.21 at antigen 100 / 10 / 0 (ng/mL); white box

Bmax [1]: 0.172
B1: Anti-FAM19A5 (P1-F02) (antibody, V domains shown)
VH: QSLEESGGRLVTPGTPLTLTCTASGFSLSNYYMGWVRQAPGEGLEWIGIIYASGSTYYASWAKGRFTISKTSTTVDLKMTSLTTEDTATYFCARIDIGVGDYGWAYDRLDLWGQGTLVTVSS
VL: ELDMTQTPPSLSASVGETVRIRCLASEDIYSGISWYQQKPGKPPTLLIYGASNLESGVPPRFSGSGSGTDYTLTIGGVQAEDAATYYCLGGYSYSSITFGAGTNVEIK

Bmax [1]: 3.04
Kd [2]: 0.25 nM
Kd [3]: 2.77 nM
B2: Anti-FAM19A5 (13F7) (antibody, V domains shown)
VH: QVQLQEWGAGLLKPSETLSLTCAINAESFNGYSWTWIRQTPGKGLEWIGEISHFGSANYNPSLKSRATISADKSKNQFSLKLTSVTAVDTAVYYCARALRGTYSRFYYGMDVWGQGTTVTVSS
VL: DIVMTQTPLSLPVAPGEPASISCRSSQSLLHSNGYNYLDWYVQKPGQPPQLLIYLGSNRASGVPDRFSGSGSGTDFTLKISRVEAEDVGVYYCMQARQTPLTFGGGTKVEIK

Bmax [1]: 3.26
Kd [4]: 0.41 nM
S/N [5]: 1
S/N [6]: 1
S/N [7]: 13.9
S/N [8]: 7
S/N [9]: 1.7
B3: Anti-FAM19A5 (P2-F11) (antibody, V domains shown)
VH: QEQLVESGGRLVTPGTTLTLTCTVSGFSLSSYGVSWVRQAPGKGLEWIGYIANNYNPHYASWAKGRFTISKTSSTTVDLKMTSLTTEDTATYFCARDNYGMDPWGPGTLVTVSS
VL: ELDLTQTPSSVSAAVGGTVTINCQASQSVYNNKNLAWYQQKPGQPPKLLIYAASTLASGVSSRFKGSGSGTQFTLTISDVQCDDAATYYCQGEFSCSSADCNAFGGGTELEIL

Bmax [1]: 0.479
Kd [10]: 6.95 nM
B4: Anti-FAM19A5 (P1-A08) (antibody, V domains shown)
VH: QSLEESGGRLVTPGTPLTLTCTASGFSLSTYYMSWVRQAPGKGLEWIGIVYPSGTTYYANWAKGRFTISTASTTVDLMITSPTTEDTATYFCARGDSFGYGLWGPGTLVTVSS
VL: ELVLTQSPSVQVNLGQTVSLTCTADTLSRSYASWYQQKPGQAPVLLIYRDTSRPSGVPDRFSGSSSGNTATLTISGAQAGDEADYYCATSDGSGSNYQYVFGGGTQLTVT

Bmax [1]: 3.37
S/N [11]: 1.1
S/N [12]: 7.8
S/N [13]: 1
S/N [14]: 1
Kd [15]: 0.61 nM
S/N [16]: 10
B5: Anti-FAM19A5 (P2-A03) (antibody, V domains shown)
VH: QSVEESGGRLVTPGTPLTLTCTVSGFSLNNYDMSWVRQAPGKGLEYIGFMDTDGSAYYATWAKGRFTISRTSTTVDLKMTSPTTEDTATYFCARRGSSYYGGIDIWGPGTPVTVSL
VL: ELDLTQTPASVSEPVGGTVTIKCQASQSIGGNLAWYQQKPGQPPKLLIYRASTLASGVPSRFKGSGSGTDFTLTISDLECADAATYYCQSPAYDPAAYVGNAFGGGTELEIL

Bmax [1]: 0.134
B6: Anti-FAM19A5 (P2-F07) (antibody, V domains shown)
VH: QSLEESGGRLVTPGTPLTLTCTASGFSLSSYYMNWVRQAPGKGLEWIGIIYPSGTTYYAGWAKGRFTISKTSTTVDLKITSPTSEDTATYFCARTVSGYFDIWGPGTLVTVSL
VL: ELDLTQTPPSLSASVGGTVTINCLASEDIYSALAWYQQKPGKPPTLLISGTSNLESGVPPRFSGSGSGTDYTLTIGGVQAEDAATYFCQGYSSYPLTFGAGTNVEIK

Bmax [1]: 1.19
Kd [17]: 9.09 nM
B7: Anti-FAM19A5 (P2-A01) (antibody, V domains shown)
VH: QEQLVESGGRLVTPGTPLTLSCTASGFFLSGYYMSWVRQAPGKGLEWIGIIYPSGSTDYASWAKGRFTISKTSTTVDLKITTPTTEDTATYFCARVAGYVGYGYETFFDIWGPGTLVTVSL
VL: ELVMTQTPPSLSASVGETVRIRCLASEDIYSGISWYQQKPGKPPTLLIYGASNLESGVPPRFSGSGSGSDYTLTIGGVQAEDAATYYCLGGVTYSSTGTHLTFGAGTNVEIK

Bmax [1]: 2.45
Kd [18]: 7.5 nM
B8: P1-A03 (antibody, V domains shown)
VH: QSVEESGGRLVTPGTPLTLTCTVSGFSLSSDYMSWVRQAPGEGLEWIGIIYPSTTTYYASWAKGRFTISKTSSTTVELKMTSLTTEDTATYFCARGSNWSSGMNLWGPGTLVTVSS
VL: ELVMTQTPPSLSASVGETVRIRCLASEDIYSGISWYQQKPEKPPTLLISGASNLESGVPPRFSGSGSGTDYTLTIGGVQAEDAATYYCLGGYSYSSTGLTFGAGTNVEIK

Kd [2]: 5.95 nM
B9: Anti-FAM19A5 (15A9) (antibody, V domains shown)
VH: QVQLQESGPGLVKPSETLSLTCTVSGGSISSYYWSWIRQPPGKGLEWIGYIYPSGSTNYNPSLKSRVTISVDTSKNQFSLNLKSVTAVDTAVYYCARVNPFGYYYAMDVWGQGTTVTVSS
VL: DIQMTQSPSSLSASVGDRITISCRASQSISTSLNWYQQTPGKAPRLLIYGASTLQSGVPSRFSGGGSGTDFSLTITSLQPEDFATYYCQESASIPRTFGQGTKLDIK

Bmax [1]: 2.84
S/N [19]: 1.1
S/N [20]: 1.1
Kd [2]: 3.6 nM
S/N [21]: 2.3
Kd [22]: 1.06 nM
S/N [23]: 1
S/N [24]: 3.1
B10: Anti-FAM19A5 (13B4) (antibody, V domains shown)
VH: QVQLQESGPGLVKPSGTLSLNCAVSGGSISSSNWWSWVRQPPGKGLEWIGEIYHGGTTNYNPSLKGRVTMSVDKTKNQFSLRLSSVTAVDTAVYYCARWQLVGGLDVWGQGTTVTVSS
VL: SYELTQPLSVSVSPGQTASITCSGDKLGNVYASWYQQKPGQSPTLVIYQDNKRPSGIPERFSGSNSGKTATLTISGTQALDEADYYCQAWDSSTAVFGGGTKLTVL
